Publication PMC4381397, “The recently identified modifier of murine metastable epialleles, Rearranged L-Myc Fusion, is involved in maintaining epigenetic marks at CpG island shores and enhancers”

B1: PP2 pentaprobe (ssDNA)
DNA: TATCTTACTTTAGTTTCATTTAATTGTGTTGTACTCTCCTCTGCGTTCACTTAGCTTAACTTGGTTTGGCTTGATTTGACTTCAGTTGCGCTCTATTCTA
B2: PP4 pentaprobe (ssDNA)
DNA: TATCCTACCCATTGGGCTCATCTGATCCATCCGGTCCCGTCCACTCGGCTATGTTATGCTGTATTGCAGTCGTGTCGCGTCGAGCTGCCCTAATCCCACC

Target: Gata1CF (UniProt P17679 249-311)
Sequence (P17679 249-311): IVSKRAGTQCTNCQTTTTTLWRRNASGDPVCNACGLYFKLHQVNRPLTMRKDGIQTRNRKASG
Test: EMSA; 0.5 and 5 uM protein, 5 nM probe, 10 uM ZnSO4; 10 mM HEPES pH 7.9, 30 mM NaCl, 1 mM MgCl2, 20 uM EDTA, 10 mM DTT, 10 uM ZnSO4, 67 ug/mL acetylated BSA, 4% Ficoll; on ice 30 min
Details: protein: recombinant; label: 5' FAM

Binder | binding result
B1 | binds
B2 | binds
